Test results from patent US20230111102A1 (KAO, published 2023).

Biological target: T1, HEWL (lysozyme, derived from egg albumen, FUJIFILM Wako Pure Chemical Corporation) (UniProt P00698 19-147)
T1 construct: Immobilised on a CM5 sensor chip by amine coupling (target 150 RU); Species is only implied by 'derived from egg albumen' and the abbreviation HEWL; also called antigen
Experiment: SPR (Biacore T200), HEWL amine-coupled to CM5 chip, 1ZVH at 8.6-700 nM as analyte, 1:1 binding model
Procedure: The antigen-binding activity of the 1ZVH (SEQ ID NO: 38) produced by Dpr9ΔsigF was analyzed by intermolecular interaction measurement using Biacore T200 (GE Healthcare). The sensor chip used was Series S Sensor Chip CM5, and the running buffer used was HBS-EP+. HEWL (lysozyme, derived from egg albumen, FUJIFILM Wako Pure Chemical Corporation) was adjusted to 0.7 g/L with 25 mM Na phosphate pH 6.5 buffer to prepare an antigen solution. The antigen solution diluted 100-fold with an acetic acid aqueous solution (pH 4.0, 4.5, 5.0, or 5.5) to 7 μg/mL was used as substrates. As samples, 1ZVH diluted with the running buffer to 8.6 nM, 26 nM, 78 nM, 230 nM, or 700 nM was used. The following items were set or performed on the control software attached to Biacore T200 using the substrates and the samples, and the binding between the HEWL and the 1ZVH was monitored. Immobilisation pH scouting was performed to investigate the optimum pH for ill- mobilization to a sensor chip. The optimum pH condition was judged to be pH 5.5. The target was set to 150 RU with Aim for immobilized level, and lysozyme was immobilized to Flow path 2 by an amine coupling method. In Flow path 1, Blank Immobilization was performed. The binding between a substrate and a sample was monitored in Flow path 2-1. […] The kinetics were analyzed using the resulting sensor gram. […]

T1 sequence (P00698 19-147 limits assumed): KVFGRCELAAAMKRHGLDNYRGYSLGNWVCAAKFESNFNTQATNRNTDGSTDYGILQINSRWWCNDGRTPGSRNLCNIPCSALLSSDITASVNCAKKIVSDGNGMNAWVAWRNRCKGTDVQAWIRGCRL

binding result: binds
B1: 1ZVH (VHH, SEQ ID NO: 38) produced by Bacillus subtilis Dpr9ΔsigF (VHH)
VHH: QVQLVESGGGLVQPGGSLRLSCAASGFTFSNDAMTWVRQAPGKALEWVSSITLLGGGIPYYSDTVKGRFTISRDNTKNMLYLQMNSLKPEDTAVYYCAKGFKSDYPRGQGTQVTVSS
notes: Secreted by Dpr9ΔsigF and purified on Ni-NTA agarose; also called the VHH (1ZVH); purified VHH
